The record followed here is article PMC7865940, “Effect of DNA Glycosylases OGG1 and Neil1 on Oxidized G-Rich Motif in the KRAS Promoter”.

The target of this data set is OGG1 (hOGG1, 8-oxoguanine glycosylase) (UniProt O15527 1-345). Kind of data set: EMSA; two retarded bands (1:1 and 1:2 suggested); not cleaved; EMSA buffer A: 50 mM Tris-HCl pH 7.4, 100 mM NaCl (duplex) or 100 mM KCl (G4), 1 mM EDTA, 5 mM NaF, 1 mM Na3VO4, 1 mM DTT, 2.5 ng/uL poly[dI-dC], 8% glycerol; 8 nM DNA, 0/1/5 uM protein (also given as 1 and 5 ug), 15 min; native 5% PAGE in TBE at 20 C (Results give buffer B for the G4 incubation). To be noted: protein: recombinant; tags: N-terminal His; label: 5'-32P on G-rich strand; annealed with complementary strand in 100 mM NaCl. (In EMSA bound probe runs differently from free probe, usually more slowly.)
Sequence of OGG1 (hOGG1, 8-oxoguanine glycosylase) (O15527 whole entry): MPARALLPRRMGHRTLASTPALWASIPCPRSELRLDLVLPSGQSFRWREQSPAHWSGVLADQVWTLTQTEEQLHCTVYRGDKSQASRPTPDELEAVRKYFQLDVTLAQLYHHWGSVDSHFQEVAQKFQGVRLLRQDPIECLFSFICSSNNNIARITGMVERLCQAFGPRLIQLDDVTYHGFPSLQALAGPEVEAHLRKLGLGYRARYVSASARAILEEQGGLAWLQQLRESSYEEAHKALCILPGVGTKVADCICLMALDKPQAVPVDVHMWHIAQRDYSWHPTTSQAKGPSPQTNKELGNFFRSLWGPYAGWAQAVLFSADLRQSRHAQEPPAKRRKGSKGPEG

B1: 32R wild-type duplex (dsDNA)
DNA 1: AGGGCGGTGTGGGAAGAGGGAAGAGGGGGAGG
DNA 2: CCTCCCCCTCTTCCCTCTTCCCACACCGCCCT
As for B1, the binding result is given as “binds”.
